How the values were obtained:
[1] = tested on: NP isolated from virus (Influenza A virus (strain for filter assay not stated; A/PR/8/34 used for MS)); test: filter binding; details: running buffer with 300 mM NaCl and 0.025% P20, 25 C, conditions not given
[2] = tested on: wt NP, recombinant (filter binding) (Influenza A virus (A/WSN/33, H1N1)); test: filter binding; details: running buffer with 300 mM NaCl and 0.025% P20, 25 C, conditions not given
[3] = target: wild type nucleoprotein of influenza A virus H1N1 strain A/WSN/33 (influenza A virus H1N1 strain A/WSN/33); test: crystal structure

Substance	Kd [1] [nM]	Kd [2] [nM]	stoichiometry N [3]
81 nt panhandle RNA	30	30	–
wild type nucleoprotein of influenza A virus H1N1 strain A/WSN/33 (natural protein)	–	–	3

Source: publication PMC3610751
